Molecular target: T1, phiC31 integrase WT (Streptomyces phage phiC31, UniProt Q38194 1-613)
T1 sequence: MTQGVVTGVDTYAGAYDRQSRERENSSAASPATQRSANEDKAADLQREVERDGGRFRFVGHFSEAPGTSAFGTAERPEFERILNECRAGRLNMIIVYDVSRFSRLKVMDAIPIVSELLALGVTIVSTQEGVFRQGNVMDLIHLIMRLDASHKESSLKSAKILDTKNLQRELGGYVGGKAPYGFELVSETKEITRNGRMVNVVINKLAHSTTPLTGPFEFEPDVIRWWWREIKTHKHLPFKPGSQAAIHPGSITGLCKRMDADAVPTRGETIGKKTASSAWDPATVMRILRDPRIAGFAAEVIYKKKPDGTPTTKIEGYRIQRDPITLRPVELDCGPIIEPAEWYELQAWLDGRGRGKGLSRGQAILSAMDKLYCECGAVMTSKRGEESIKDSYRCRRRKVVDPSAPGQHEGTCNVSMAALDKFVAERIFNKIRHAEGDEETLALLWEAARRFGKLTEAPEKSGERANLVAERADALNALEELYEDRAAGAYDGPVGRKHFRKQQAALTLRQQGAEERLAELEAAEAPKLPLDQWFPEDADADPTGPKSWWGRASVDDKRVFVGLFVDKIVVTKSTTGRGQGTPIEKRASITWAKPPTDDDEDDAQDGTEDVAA
Test: EMSA; complexes I, II, III; reference; competed by excess cold attB; 50 ng/ul Poly (competitor (so in the source)), 0.05% NP-40, 50 mM KCl, 5 mM MgCl2, 10 mM EDTA, 20 ul, 0.4 ng (16 fmol) probe; 30 min at room temperature (Methods) or 30 C; pH not stated; synapsis 2 h at 30 C
Details: protein: recombinant; tags: C-terminal His (pET22b); chain copies: 2; label: biotin, double-strand end-labeled; blunt

B1: attB 41 bp (dsDNA)
DNA 1: CGGGTGCCAGGGCGTGCCCTTGGGCTCCCCGGGCGCGTACT
DNA 2: AGTACGCGCCCGGGGAGCCCAAGGGCACGCCCTGGCACCCG
binding signal: 100 % of WT

Source: paper PMC2810336, “Mutational Analysis of Highly Conserved Residues in the Phage PhiC31 Integrase Reveals Key Amino Acids Necessary for the DNA Recombination”
